Results on one molecule are retold here after patent US20250304973, “HIGH-AFFINITY THROMBIN APTAMERS AND METHODS OF USE” (Ayass Bioscience LLC, published 2025).

One series addresses thrombin (Rattus norvegicus, UniProt P18292;P18292 P18292:311-359,P18292:360-617). Description: BLI; biotinylated aptamer on streptavidin sensor, 1:1 fit; printed as "-0.6 nM". Conditions: label: 5' biotin (ELISA, BLI); predicted hairpin, possible G4.
Another series has as its target alpha-thrombin (native) (Homo sapiens, UniProt P00734;P00734 P00734:315-363,P00734:364-622). Nature of the series: ELONA; 20 mM Tris pH 7.5, 150 mM NaCl, 0.1% BSA, 0.1% Tween 20, salmon sperm DNA, RT; competed by 100-fold unlabeled aptamer.

In the case of GCGGTGTTGCTGGGGTTGGGAGGTTGGAGGAAGCAATCGC (ssDNA) [AYA1809002], the results for the Kd with thrombin and with alpha-thrombin (native) were roughly 0.6 nM and 10 nM, respectively.

For orientation: Kd means the equilibrium constant for the complex coming apart.
